# Test results from article PMC4001326, “DNA polymerase V activity is autoregulated by a novel intrinsic DNA-dependent ATPase”.
# Where “and” joins values, the source holds several entries; their conditions need not be identical. Identical values can stand only once.
# Columns and labels:
# [1] = target: pol V Mut E38K/K72R K72R;RecA:E38K (Escherichia coli (pol V from strain RW644)) (UniProt P0AG11+P04152+P0A7G6); assay: fluorescence anisotropy; conditions: fluorescein-dT replacing T44 (from parent S5); 20 mM Tris-HCl pH 7.5, 25 mM Na glutamate, 8 mM MgCl2, 8 mM DTT, 4% glycerol, 0.1 mM EDTA, 37 C; 50 nM labeled hairpin; 500 uM ATP or ATPgS (titrations to …)
# [2] = target: pol V Mut E38K/ΔC17 del17-17;RecA:E38K (Escherichia coli (pol V from strain RW644)) (UniProt P0AG11+P04152+P0A7G6); assay: fluorescence anisotropy; conditions: fluorescein-dT replacing T44 (from parent S5); 20 mM Tris-HCl pH 7.5, 25 mM Na glutamate, 8 mM MgCl2, 8 mM DTT, 4% glycerol, 0.1 mM EDTA, 37 C; 50 nM labeled hairpin; 500 uM ATP or ATPgS (titrations to …)
# [3] = target: T1, pol V Mut WT (UmuD'2C-RecA-ATP) (Escherichia coli (pol V from strain …, UniProt P0AG11;P04152;P0A7G6 25-139;1-422;2-353)); assay: fluorescence anisotropy; 500 uM ATPgS; 20 mM Tris-HCl pH 7.5, 25 mM Na glutamate, 8 mM MgCl2, 8 mM DTT, 4% glycerol, 0.1 mM EDTA, 37 C; 50 nM labeled hairpin; 500 uM ATP or ATPgS (titrations to 750 uM); conditions: protein: recombinant, tags: His (pol V), chain copies: 2;1;1, label: fluorescein (internal dT), 18 bp stem, 5' overhang 12 nt
# [4] = target: T1, pol V Mut WT (UmuD'2C-RecA-ATP); assay: fluorescence anisotropy; ATPgS titration, saturating at about 220 uM; 20 mM Tris-HCl pH 7.5, 25 mM Na glutamate, 8 mM MgCl2, 8 mM DTT, 4% glycerol, 0.1 mM EDTA, 37 C; 50 nM labeled hairpin; 500 uM ATP or ATPgS (titrations to 750 uM); conditions: protein: recombinant, tags: His (pol V), chain copies: 2;1;1, label: fluorescein (internal dT), 18 bp stem, 5' overhang 3 nt by name
molecule,measurement,setting,value
CGAAACAGGAAAGCAGTTAGCGCATTCAGCTCATACTGCTGAATGCGCTAACTGC [Fluorescein 12 nt oh HP],Kd,[1],920 nM
same,Kd,[2],312 nM and 469 nM
"Fluorescein 12 nt oh HP (structured_DNA, fluorescein-dT replacing T44 (from parent S5)) DNA: CGAAACAGGAAAGCAGTTAGCGCATTCAGCTCATACTGCTGAATGCGCTAACTGC",Kd,[3],876 ± 52 nM
"AGAGCAGTTAGCGCATTCAGCTCATACTGCTGAATGCGCTAACTGC (structured_DNA, fluorescein-dT replacing T17 (from parent S1)) [Fluorescein 3 nt oh HP]",binding result,[4],binds
